Usually EC50 (read off the curve) stands for the concentration giving half of the maximal effect. A high value points to weaker potency.

The results in this text go back to US20260049151A1 (SHENGHE CHINA BIOPHARMACEUTICAL, published 2026).

Like-named read-outs stand apart in the source and are kept apart here.

Test [1] has as its target T1, Human-TNFR2-His (human, UniProt P20333 23-257).
T1 construct: Bought protein; also called human TNFR2 protein; TNFR2 protein; not shown: His tag
T1 sequence (looked up): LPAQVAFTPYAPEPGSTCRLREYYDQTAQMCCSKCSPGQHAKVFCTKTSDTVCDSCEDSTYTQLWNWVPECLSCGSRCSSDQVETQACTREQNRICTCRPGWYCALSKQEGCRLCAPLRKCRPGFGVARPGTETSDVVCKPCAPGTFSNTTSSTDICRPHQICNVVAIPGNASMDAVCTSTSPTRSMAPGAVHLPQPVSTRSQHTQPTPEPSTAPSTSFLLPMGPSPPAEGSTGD
As to the kind of experiment: ELISA: Human-TNFR2-His coated (0.1 ug/mL), antibody titrated, goat anti-human IgG Fc detection (Example 2). (In general: In an ELISA, binding on a coated surface is turned into a signal by an enzyme label.)

In another test the target is T2, Human TNFR2 mFc (human, UniProt P20333 23-257).
T2 construct: Bought protein; not shown: mFc
T2 sequence (looked up): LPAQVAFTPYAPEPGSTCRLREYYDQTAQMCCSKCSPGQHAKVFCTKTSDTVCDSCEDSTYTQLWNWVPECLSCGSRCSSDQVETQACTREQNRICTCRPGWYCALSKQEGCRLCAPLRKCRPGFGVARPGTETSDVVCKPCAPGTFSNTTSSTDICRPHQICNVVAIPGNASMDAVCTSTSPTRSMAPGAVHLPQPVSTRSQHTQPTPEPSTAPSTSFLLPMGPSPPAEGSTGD
As to the kind of experiment: bridging ELISA: Human TNFR2 mFc coated (0.3 ug/mL), antibody titrated, then Human 4-1BB His (0.3 ug/mL), HRP anti-His detection (Example 5).

A further test addresses T3, Human 4-1BB His (human, UniProt Q07011 24-186).
T3 construct: Bought protein; lots 198-2146F1-W6 and 2407c-214FF1-YC; also called human 4-1BB protein; 4-1BB protein; not shown: His tag
As to the kind of experiment: ELISA: Human 4-1BB His coated (0.2 ug/mL), antibody titrated, goat anti-human IgG Fc detection (Example 3). The protocol:
Human 4-1BB His (manufacturer: Acro, CAT: 41B-H5258, LOT: 198-2146F1-W6) was diluted to 0.2 μg/mL with a coating solution (1×PBS, pH7.4), and coated in 96-well ELISA plate at 100 μL/well overnight at 4° C. The coating solution was poured off. Each well was washed with 1×PBST at 300 μL, washed 4 times with a plate washer, and patted dry on a flat paper. It was blocked with 3% skim milk powder at 300 μL/well, and incubated at 37° C. for 1 h. The blocking solution was poured off, washed 4 times with a plate washer, and patted dry on a flat paper. Negative control and positive control were set up. […] The variable region of the antibody sequence of the positive control consists of SEQ ID NO: 15 and SEQ ID NO: 19, with the addition of the constant region of human IgG1 (SEQ ID NO: 46 and SEQ ID NO: 47). The positive control and antibody were diluted to 10 μg/mL with 3% skim milk powder as the starting concentration, and then diluted by 3-fold gradient (11 gradients in total), and a blank well was set up and only the diluent was added. It was incubated at 37° C. for 1 h at 100 μL/well. The liquid in the well was discarded, washed 4 times with a plate washer, and patted dry on a flat paper. Goat anti-human IgG Fc was diluted with 3% skim milk powder at 1:20000, and incubated at 37° C. for 1 h at 100 μL/well. It was washed 6 times with a plate washer, and patted dry on a flat paper. TMB color developing solution was added at 100 μL/well, and wrapped with aluminum foil. Color development was performed at 37° C. in the dark for 8 min. Termination solution 1M HCl was added to terminate the color development reaction at 100 μL/well. Readings were taken at 450 nm on an ELISA reader.

Test [2] has as its target T1, Human-TNFR2-His. As to the kind of experiment: ELISA: Human-TNFR2-His coated (0.1 ug/mL), antibody titrated, goat anti-human IgG Fc detection (Example 2). The protocol: Human-TNFR2-His (manufacturer: SINO, CAT: 10417-H08H, LOT: LC15NO0412) was diluted to 0.1 μg/mL with a coating solution (1×PBS, pH7.4), and coated in 96-well ELISA plate at 100 µL/well overnight at 4° C. The coating solution was poured off. Each well was washed with 1×PBST at 300 μL, washed 4 times with a plate washer, and patted dry on a flat paper. It was blocked with 3% skim milk powder at 300 μL/well, and incubated at 37° C. for 1 h. The blocking solution was poured off, washed 4 times with a plate washer, and patted dry on a flat paper. Negative control and positive control were set up. […] The positive control and antibody were diluted to 10 μg/mL with 3% skim milk powder as the starting concentration, and then diluted by 3-fold gradient (11 gradients in total), and a blank well was set up and only the diluent was added. It was incubated at 37° C. for 1 h at 100 μL/well. The liquid in the well was discarded, washed 4 times with a plate washer, and patted dry on a flat paper. Goat anti-human IgG Fc was diluted with 3% skim milk powder at 1:10000, and incubated at 37° C. for 1 h at 100 μL/well. It was washed 6 times with a plate washer, and patted dry on a flat paper. TMB color developing solution was added at 100 μL/well, and wrapped with aluminum foil. Color development was performed at 37° C. in the dark for 8 min. Termination solution 1M HCl was added to terminate the color development reaction at 100 μL/well. Readings were taken at 450 nm on an ELISA reader.
The source holds these as a separate data set.

T3 sequence (Q07011 24-186 limits assumed): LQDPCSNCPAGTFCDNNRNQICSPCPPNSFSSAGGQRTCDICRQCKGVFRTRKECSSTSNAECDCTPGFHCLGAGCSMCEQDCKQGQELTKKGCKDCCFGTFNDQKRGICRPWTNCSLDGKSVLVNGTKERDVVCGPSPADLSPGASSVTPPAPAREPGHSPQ

B1: Antibody E1 (bispecific antibody, human IgG1, kappa)
light: DIVMTQSPATLSVSPGERATLSCKASQNVGSNVDWYQQKPGQSPRVLIYKASIRYTGIPARFSGSGSGTEFTLTISILQSEDFAVYFCMQSKSYPITFGQGTKLEIKRTVAAPSVFIFPPSDEQLKSGTASVVCLLNNFYPREAKVQWKVDNALQSGNSQESVTEQDSKDSTYSLSSTLTLSKADYEKHKVYACEVTHQGLSSPVTKSFNRGEC
heavy: not shown
notes: IgG1 subtype; full-length TNFR2 antibody with 4-1BB scFv at the C-terminus of the heavy chains
Turning to B1, the “EC50 (read off the curve)” value with Human-TNFR2-His [1] was around 0.09 nM; with Human TNFR2 mFc, around 0.07 nM.

B2: Antibody J1 (bispecific antibody, human IgG1, kappa)
light: DIQMTQSPSSLSASLGDRVTISCSASQGISNYLNWYQQKPDGTVKLLIYYTSTLHSGVPSRFSGSGSGTDYTLTISSLQPEDIATYYCQQYSKLPWTFGGGTKLEIKRTVAAPSVFIFPPSDEQLKSGTASVVCLLNNFYPREAKVQWKVDNALQSGNSQESVTEQDSKDSTYSLSSTLTLSKADYEKHKVYACEVTHQGLSSPVTKSFNRGEC
heavy: not shown
notes: IgG1 subtype; full-length 4-1BB antibody with TNFR2 VHH at the C-terminus of the heavy chains
For B2, the “EC50 (read off the curve)” value with Human-TNFR2-His [1] is around 0.2 nM; with Human 4-1BB His, around 0.09 nM; with Human TNFR2 mFc, around 0.07 nM.

B3: Antibody M1 (bispecific antibody, human IgG1, kappa)
light: DIQMTQSPSSLSASLGDRVTISCSASQGISNYLNWYQQKPDGTVKLLIYYTSTLHSGVPSRFSGSGSGTDYTLTISSLQPEDIATYYCQQYSKLPWTFGGGTKLEIKRTVAAPSVFIFPPSDEQLKSGTASVVCLLNNFYPREAKVQWKVDNALQSGNSQESVTEQDSKDSTYSLSSTLTLSKADYEKHKVYACEVTHQGLSSPVTKSFNRGEC
heavy: not shown
notes: IgG1 subtype; full-length 4-1BB antibody with TNFR2 VHH at the N-terminus of the heavy chains
On to B3, for which the “EC50 (read off the curve)” value with Human-TNFR2-His [2] was around 0.04 nM; with Human TNFR2 mFc, around 0.09 nM.

B4: Antibody H (bispecific antibody, human IgG1, kappa)
light: QVQLQESGPGLVKPSETLSLTCTVSGSSLTSYGVHWVRQPPGKCLEGLGVIWPGGSTNYNSALMSRVTISKDNSKSQVSLKMSSLTAADTAVYYCARVTGTWYFDVWGQGTTVTVSSGGGGSGGGGSGGGGSDIQMTQSPSSLSASLGDRVTISCSASQGISNYLNWYQQKPDGTVKLLIYYTSTLHSGVPSRFSGSGSGTDYTLTISSLQPEDIATYYCQQYSKLPWTFGCGTKLEIKGGGGSGGGGSGGGGSDIVMTQSPATLSVSPGERATLSCKASQNVGSNVDWYQQKPGQSPRVLIYKASIRYTGIPARFSGSGSGTEFTLTISILQSEDFAVYFCMQSKSYPITFGQGTKLEIKRTVAAPSVFIFPPSDEQLKSGTASVVCLLNNFYPREAKVQWKVDNALQSGNSQESVTEQDSKDSTYSLSSTLTLSKADYEKHKVYACEVTHQGLSSPVTKSFNRGEC
heavy: not shown
notes: IgG1 subtype; full-length TNFR2 antibody with 4-1BB scFv at the N-terminus of the light chains
For the molecule B4, the “EC50 (read off the curve)” value with Human 4-1BB His was around 0.06 nM; with Human TNFR2 mFc it was around 0.07 nM.
